Laboratory results from paper PMC4574047, “Biochemical Characterization of Putative Adenylate Dimethylallyltransferase and Cytokinin Dehydrogenase from Nostoc sp. PCC 7120” (PLoS ONE, 2015).

T1: NoIPT1 (Nostoc sp. PCC 7120 = FACHB-418, UniProt A0ACD7S271)
T1 construct: gene all0220; full gene in pET-28b(+) (NdeI/SalI), N-terminal polyhistidine tag kept; E. coli BL21(DE3) STAR
T1 sequence (A0ACD7S271 1-244): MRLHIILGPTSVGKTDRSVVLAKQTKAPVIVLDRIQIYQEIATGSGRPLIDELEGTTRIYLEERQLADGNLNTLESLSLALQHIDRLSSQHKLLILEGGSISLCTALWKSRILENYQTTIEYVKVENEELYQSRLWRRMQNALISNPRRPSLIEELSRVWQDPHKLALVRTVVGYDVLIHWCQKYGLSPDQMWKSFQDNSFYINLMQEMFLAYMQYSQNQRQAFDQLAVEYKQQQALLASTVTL

B1: NoIPT1 (Nostoc sp. PCC 7120 = FACHB-418) (protein)
chain: T1 sequence (A0ACD7S271 1-244)
notes: full gene in pET-28b(+) (NdeI/SalI), N-terminal polyhistidine tag kept; E. coli BL21(DE3) STAR

Legend:
NoIPT1 = molecular target: T1, NoIPT1; test: HPLC-UV product determination; trans-zeatin-5'-monophosphate formed; type: biochemical; settings: with AMP, 10 mM MgCl2, pH 7.5, 25°C
purified protein [1] = substrate: Nc1ncnc2c1ncn2[C@@H]1O[C@H](COP(=O)(O)O)[C@@H](O)[C@H]1O; test: purified protein; type: biochemical, Nostoc sp. PCC 7120 = FACHB-418; settings: 150 μM DMAPP, 10 mM MgCl2, 100 mM Tris/HCl pH 7.5, 25°C
purified protein [2] = substrate: CC(C)=CCOP(=O)(O)OP(=O)(O)O; test: purified protein; type: biochemical, Nostoc sp. PCC 7120 = FACHB-418; settings: 20 μM AMP, 10 mM MgCl2, 100 mM Tris/HCl pH 7.5, 25°C

| Molecule | HPLC-UV product determination; trans-zeatin-5'-monophosphate formed (NoIPT1) | Km (purified protein [1]) [µM] | Km (purified protein [2]) [µM] |
| --- | --- | --- | --- |
| C/C(=C\COP(=O)(O)OP(=O)(O)O)CO [HMBPP, (E)-4-hydroxy-3-methyl-but-2-enyl diphosphate] | NoIPT1 used a hydroxylated side chain precursor, HMBPP, to form trans-zeatin-5´-monophosphate in the reaction with AMP |  |  |
| B1 |  | 0.63 ± 0.18 | 27.05 ± 2.47 |
